{
  "source": "paper PMC4321091",
  "about": "“Recombinant Cyclodextrinase from Thermococcus kodakarensis KOD1: Expression, Purification, and Enzymatic Characterization” (Archaea, 2015)",
  "substrate": "OC[C@H]1O[C@@H]2O[C@H]3[C@H](O)[C@@H](O)[C@@H](O[C@H]4[C@H](O)[C@@H](O)[C@@H](O[C@H]5[C@H](O)[C@@H](O)[C@@H](O[C@H]6[C@H](O)[C@@H](O)[C@@H](O[C@H]7[C@H](O)[C@@H](O)[C@@H](O[C@H]8[C@H](O)[C@@H](O)[C@@H](O[C@H]1[C@H](O)[C@H]2O)O[C@@H]8CO)O[C@@H]7CO)O[C@@H]6CO)O[C@@H]5CO)O[C@@H]4CO)O[C@@H]3CO",
  "test": "purified protein",
  "type": "biochemical, Thermococcus kodakarensis",
  "details": "20 mM Tris-HCl pH 7.5, 65°C, 1-10 mg/mL β-CD",
  "data": [
    {"protein": "CDase-Tk (Tk1770) (Thermococcus kodakarensis KOD1) (protein, pET28a EcoRI/XhoI, E. coli BL21(DE3), DEAE purified) MYKVFGFEENFIHGRVARVEFSLPDAGRWDYAYLLGNFNAFNEGSFRMKHEDKRWIIEIKLPEGLWRYAFSAGGEFLLDPENPEKELYRRPSYKFEREVSLAKIAGNDMVFHRPALLYLYSFGDRTHVLLRSKKGKVDAAYLVTDDTHVKMRKKADGEVFEYYEAVLQETEKLRYSFEVFLKEGKSLTLGPFEAAPFRLDAPSWILDRVFYQIMPDRFAKGRDHEPPFLSWEYYGGDLWGIVEKIDHLEELGVNALYLTPIFESMTYHGYDITDYLRVAERLGGEEAFRELVKALKSRDIKLVLDGVFHHTSFFHPFFRDVVERGEESEYADFYRVKGFPVVSEEFIRVLKSDLPPMEKYQTLKKMGWNYESFFSVWVMPRLNHDSPKVREFVARVMNYWLEKGADGWRLDVAHGVPPGFWREVREGLPDDAYLFGEVMDDPRLYLFGVFHGVMNYPLYDLLLRFFAFGEIGATEFINGIELLSAHLGPAEYFTYNFLDNHDTERFIDLAGKERYLCALTFLMTYKGIPAIFYGDEIGLRGSGEGMSAGRTPMSWDEEKWDFQILRQTMKLIELRRSLKSLQVGSFRVIGAGEKWFVYERKAGSERVLVGINCSWNDVETPVPSNGSNEQIKIPAFSSIIRVKDSMNVHIGSDLQE", "values": [
      {"measurement": "Km", "result": "3.13 ± 0.47", "unit": "mg/mL"},
      {"measurement": "kcat", "result": 34.6, "unit": "s⁻¹"}
    ]}
  ]
}
